Key:
Experiment in all cases: competition binding
Settings in all cases: modification not given
HLA-DRB1*0101 (human) = target: HLA-DRB1*0101 (human)
HLA-DRB1*0301 (human) = target: HLA-DRB1*0301 (human)
HLA-DRB1*0401 (human) = target: HLA-DRB1*0401 (human)
HLA-DRB1*1101 (human) = target: HLA-DRB1*1101 (human)
HLA-DRB1*1301 (human) = target: HLA-DRB1*1301 (human)
HLA-DRB1*1501 (human) = target: HLA-DRB1*1501 (human)
HLA-DRB3*0101 (human) = target: HLA-DRB3*0101 (human)
HLA-DRB1*0701 (human) = target: HLA-DRB1*0701 (human)
HLA-DRB4*0101 (human) = target: HLA-DRB4*0101 (human)
HLA-DRB5*0101 (human) = target: HLA-DRB5*0101 (human)

Binder | IC50 (HLA-DRB1*0101 (human)) [µM] | IC50 (HLA-DRB1*0301 (human)) [µM] | IC50 (HLA-DRB1*0401 (human)) [µM] | IC50 (HLA-DRB1*1101 (human)) [µM] | IC50 (HLA-DRB1*1301 (human)) [µM] | IC50 (HLA-DRB1*1501 (human)) [µM] | IC50 (HLA-DRB3*0101 (human)) [µM] | IC50 (HLA-DRB1*0701 (human)) [µM] | IC50 (HLA-DRB4*0101 (human)) [µM] | IC50 (HLA-DRB5*0101 (human)) [µM]
GTFQKWAAVVVPSGQ [p45*] | 0.004 | > 100 | 0.099 | 0.34 | > 100 | 0.474 | 0.045 | – | – | –
TELVETRPAGDGTFQ [p44] | 4.47 | > 100 | 70.4 | 8.75 | > 100 | > 100 | – | 2.16 | – | –
EQLRAYLEGTCVEWL [p32] | 0.063 | 1.84 | 1.73 | 0.424 | > 100 | 0.267 | 1.09 | 0.149 | – | –
ETLQRTDAPKTHMTH [p37] | 2 | > 100 | 60 | > 100 | > 100 | > 100 | 27.6 | 3.13 | – | –
RAYLEGTCVEWLRRY [p33] | 0.025 | 34.9 | 9.17 | 0.872 | 13.4 | 4.74 | 8.94 | 0.637 | 12.6 | –
AAVVVPSGQEQRYTC [p47] | 2.24 | 0.98 | > 100 | 68.9 | 7.48 | > 100 | 1.53 | 42.2 | – | –
HTVQRMYGCDVGSDW [p17*] | 0.035 | 5.61 | 2.12 | 6.48 | > 100 | 2.83 | 0.529 | 1.59 | – | 12
RRYLENGKETLQRTD [p36] | 0.704 | > 100 | 28 | 0.738 | 11.6 | 69 | 4.85 | > 100 | – | –
TCVEWLRRYLENGKE [p34*] | > 100 | > 100 | > 100 | 0.245 | 5 | 22.2 | 58.1 | > 100 | – | –
ADMAAQTTKHKWEAA [p29] | 40 | > 100 | > 100 | > 100 | 3.84 | > 100 | 0.033 | > 100 | – | –
LTWQRDGEDQTQDTE [p43] | > 100 | 97.5 | > 100 | > 100 | > 100 | > 100 | – | > 100 | – | 4.1
EQRYTCHVQHEGLPKP [p48] | 1.92 | > 100 | 57.4 | 0.693 | > 100 | > 100 | 20.5 | 29.5 | – | –
